Experimental data: the supplement of paper PMC10065799, “High-throughput profiling of sequence recognition by tyrosine kinases and SH2 domains using bacterial peptide display” (eLife, 2023)

How the values were obtained:
Hck = Hck (UniProt P08631); assay: phosphorylation enrichment, bacterial display (enrichment ratio); higher = better substrate or ligand; peptides without Tyr show the background
EPHB2 = EPHB2 (UniProt P29323); assay: as above
Fer (mouse) = assay: as above
Fyn = Fyn (UniProt P06241); assay: as above
Fyn, sequence (P06241 whole entry, looked up): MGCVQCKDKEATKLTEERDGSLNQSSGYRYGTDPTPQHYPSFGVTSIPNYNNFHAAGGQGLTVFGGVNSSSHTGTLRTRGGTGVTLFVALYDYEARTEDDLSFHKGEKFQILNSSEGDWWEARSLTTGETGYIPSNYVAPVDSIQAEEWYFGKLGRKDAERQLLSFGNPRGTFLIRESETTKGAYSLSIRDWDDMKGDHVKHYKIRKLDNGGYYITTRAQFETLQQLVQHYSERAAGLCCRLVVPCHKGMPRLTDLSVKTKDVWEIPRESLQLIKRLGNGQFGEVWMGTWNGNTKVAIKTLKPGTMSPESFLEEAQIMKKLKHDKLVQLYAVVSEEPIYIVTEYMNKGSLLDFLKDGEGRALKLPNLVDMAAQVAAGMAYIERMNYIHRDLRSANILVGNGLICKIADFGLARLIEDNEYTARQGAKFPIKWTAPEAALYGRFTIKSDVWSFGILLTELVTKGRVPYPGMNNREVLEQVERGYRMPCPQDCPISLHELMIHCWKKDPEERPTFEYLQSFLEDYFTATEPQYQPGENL

EPHB1 = EPHB1 (UniProt P54762); assay: as above
EPHB1, sequence (P54762 whole entry, looked up): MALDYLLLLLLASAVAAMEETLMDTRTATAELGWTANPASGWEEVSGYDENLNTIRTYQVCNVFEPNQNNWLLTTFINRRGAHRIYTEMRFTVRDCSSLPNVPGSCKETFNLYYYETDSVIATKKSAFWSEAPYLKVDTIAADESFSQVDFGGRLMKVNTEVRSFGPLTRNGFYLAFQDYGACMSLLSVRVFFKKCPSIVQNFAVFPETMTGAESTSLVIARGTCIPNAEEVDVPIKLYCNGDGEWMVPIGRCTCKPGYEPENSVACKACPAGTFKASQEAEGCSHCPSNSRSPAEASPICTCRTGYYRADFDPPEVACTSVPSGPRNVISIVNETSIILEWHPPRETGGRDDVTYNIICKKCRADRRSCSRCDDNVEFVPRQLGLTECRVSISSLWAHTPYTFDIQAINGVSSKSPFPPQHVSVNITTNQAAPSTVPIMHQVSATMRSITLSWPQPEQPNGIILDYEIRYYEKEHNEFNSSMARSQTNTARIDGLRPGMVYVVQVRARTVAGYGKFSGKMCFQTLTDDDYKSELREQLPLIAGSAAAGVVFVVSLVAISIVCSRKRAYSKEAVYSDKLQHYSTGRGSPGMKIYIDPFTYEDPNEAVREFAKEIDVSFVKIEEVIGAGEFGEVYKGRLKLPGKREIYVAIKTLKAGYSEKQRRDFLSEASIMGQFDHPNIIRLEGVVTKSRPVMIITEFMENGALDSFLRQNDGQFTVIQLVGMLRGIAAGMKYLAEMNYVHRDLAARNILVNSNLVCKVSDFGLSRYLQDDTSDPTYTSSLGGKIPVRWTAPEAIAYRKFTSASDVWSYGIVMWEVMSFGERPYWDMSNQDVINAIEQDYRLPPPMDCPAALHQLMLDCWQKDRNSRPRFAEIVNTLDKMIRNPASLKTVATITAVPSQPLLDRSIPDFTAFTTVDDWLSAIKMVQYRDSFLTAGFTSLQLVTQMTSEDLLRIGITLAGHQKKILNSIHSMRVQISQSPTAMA

Fes = Fes (UniProt P07332); assay: as above
AncSZ = assay: as above
FGFR1 = FGFR1 (UniProt P11362); assay: as above
FGFR1, sequence (P11362 whole entry, looked up): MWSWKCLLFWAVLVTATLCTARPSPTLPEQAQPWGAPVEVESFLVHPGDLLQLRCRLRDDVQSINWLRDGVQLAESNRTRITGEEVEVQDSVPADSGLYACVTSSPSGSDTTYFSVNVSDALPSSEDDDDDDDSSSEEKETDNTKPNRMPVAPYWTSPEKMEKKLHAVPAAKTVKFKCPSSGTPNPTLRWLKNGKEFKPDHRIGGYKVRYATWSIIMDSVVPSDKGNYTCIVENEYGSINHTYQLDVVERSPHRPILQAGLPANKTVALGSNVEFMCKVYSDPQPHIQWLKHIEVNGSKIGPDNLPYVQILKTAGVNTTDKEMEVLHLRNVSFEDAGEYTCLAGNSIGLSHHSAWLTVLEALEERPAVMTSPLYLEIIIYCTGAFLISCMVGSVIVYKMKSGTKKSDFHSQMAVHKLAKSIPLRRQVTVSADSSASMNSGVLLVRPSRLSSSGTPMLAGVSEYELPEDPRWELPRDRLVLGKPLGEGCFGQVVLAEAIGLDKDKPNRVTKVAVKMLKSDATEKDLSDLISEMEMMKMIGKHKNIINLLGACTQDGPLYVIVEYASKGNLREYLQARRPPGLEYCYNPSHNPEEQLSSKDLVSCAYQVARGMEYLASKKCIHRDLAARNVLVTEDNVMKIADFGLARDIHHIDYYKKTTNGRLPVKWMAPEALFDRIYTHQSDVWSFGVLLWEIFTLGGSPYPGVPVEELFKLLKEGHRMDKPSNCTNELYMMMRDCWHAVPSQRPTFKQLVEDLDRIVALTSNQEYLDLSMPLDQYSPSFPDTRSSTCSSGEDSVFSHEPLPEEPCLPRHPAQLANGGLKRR

c-Abl (mouse) = assay: as above
FGFR3 = FGFR3 (UniProt P22607); assay: as above
Jak2 = Jak2 (UniProt O60674); assay: as above
Jak2, sequence (O60674 whole entry, looked up): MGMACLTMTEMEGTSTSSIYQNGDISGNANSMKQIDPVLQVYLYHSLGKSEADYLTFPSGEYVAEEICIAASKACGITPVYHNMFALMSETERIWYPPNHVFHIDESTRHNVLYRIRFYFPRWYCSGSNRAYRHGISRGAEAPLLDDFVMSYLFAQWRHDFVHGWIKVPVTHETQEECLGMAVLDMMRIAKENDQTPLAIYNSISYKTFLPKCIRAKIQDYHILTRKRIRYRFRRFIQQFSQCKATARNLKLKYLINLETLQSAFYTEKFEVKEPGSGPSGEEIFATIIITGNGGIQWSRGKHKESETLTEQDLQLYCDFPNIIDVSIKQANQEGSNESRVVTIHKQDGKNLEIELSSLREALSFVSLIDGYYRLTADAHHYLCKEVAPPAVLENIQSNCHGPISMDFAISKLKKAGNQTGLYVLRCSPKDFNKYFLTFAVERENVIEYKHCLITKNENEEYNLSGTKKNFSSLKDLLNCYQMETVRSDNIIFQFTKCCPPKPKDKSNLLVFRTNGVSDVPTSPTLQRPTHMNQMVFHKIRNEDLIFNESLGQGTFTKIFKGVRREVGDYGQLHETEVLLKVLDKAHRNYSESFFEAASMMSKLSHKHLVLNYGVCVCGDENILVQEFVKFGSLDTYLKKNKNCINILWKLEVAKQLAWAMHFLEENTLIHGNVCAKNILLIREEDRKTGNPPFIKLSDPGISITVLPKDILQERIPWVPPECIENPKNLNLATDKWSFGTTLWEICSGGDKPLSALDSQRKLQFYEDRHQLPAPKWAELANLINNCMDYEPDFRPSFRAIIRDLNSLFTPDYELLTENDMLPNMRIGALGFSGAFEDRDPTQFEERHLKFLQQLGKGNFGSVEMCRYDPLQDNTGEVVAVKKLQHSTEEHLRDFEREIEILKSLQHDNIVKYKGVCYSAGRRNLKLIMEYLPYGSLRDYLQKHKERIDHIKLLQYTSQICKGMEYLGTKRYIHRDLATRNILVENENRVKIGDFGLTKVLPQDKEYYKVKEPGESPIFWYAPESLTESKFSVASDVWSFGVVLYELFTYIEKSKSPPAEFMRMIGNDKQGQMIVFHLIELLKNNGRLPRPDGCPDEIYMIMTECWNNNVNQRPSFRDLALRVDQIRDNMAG

c-Src = assay: as above
MERTK = MERTK (UniProt Q12866); assay: as above
c-Src SH2 = assay: SH2 binding enrichment of the phosphorylated peptide, bacterial display (enrichment ratio); higher = better substrate or ligand; peptides without Tyr show the background
SHP2-C SH2 = assay: as above
Grb2 SH2 = Grb2 SH2 (UniProt P62993); assay: as above
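Throughout, for SH2 binding enrichment of the phosphorylated peptide, bacterial display: peptide library displayed on the E. coli surface as eCPX fusions, selected cells deep-sequenced, score is each peptide's frequency after selection divided by its frequency in the input.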
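Throughout, for phosphorylation enrichment, bacterial display: 11-residue human phosphosite peptides and single-mutation variants displayed on the E. coli surface, counted by deep sequencing, each peptide's frequency after selection divided by its frequency in the unselected input library; frequency after pTyr selection over input frequency; kinase dosed for 20-30% of maximal phosphorylation in three min.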

EPHB2, sequence (P29323 whole entry, looked up): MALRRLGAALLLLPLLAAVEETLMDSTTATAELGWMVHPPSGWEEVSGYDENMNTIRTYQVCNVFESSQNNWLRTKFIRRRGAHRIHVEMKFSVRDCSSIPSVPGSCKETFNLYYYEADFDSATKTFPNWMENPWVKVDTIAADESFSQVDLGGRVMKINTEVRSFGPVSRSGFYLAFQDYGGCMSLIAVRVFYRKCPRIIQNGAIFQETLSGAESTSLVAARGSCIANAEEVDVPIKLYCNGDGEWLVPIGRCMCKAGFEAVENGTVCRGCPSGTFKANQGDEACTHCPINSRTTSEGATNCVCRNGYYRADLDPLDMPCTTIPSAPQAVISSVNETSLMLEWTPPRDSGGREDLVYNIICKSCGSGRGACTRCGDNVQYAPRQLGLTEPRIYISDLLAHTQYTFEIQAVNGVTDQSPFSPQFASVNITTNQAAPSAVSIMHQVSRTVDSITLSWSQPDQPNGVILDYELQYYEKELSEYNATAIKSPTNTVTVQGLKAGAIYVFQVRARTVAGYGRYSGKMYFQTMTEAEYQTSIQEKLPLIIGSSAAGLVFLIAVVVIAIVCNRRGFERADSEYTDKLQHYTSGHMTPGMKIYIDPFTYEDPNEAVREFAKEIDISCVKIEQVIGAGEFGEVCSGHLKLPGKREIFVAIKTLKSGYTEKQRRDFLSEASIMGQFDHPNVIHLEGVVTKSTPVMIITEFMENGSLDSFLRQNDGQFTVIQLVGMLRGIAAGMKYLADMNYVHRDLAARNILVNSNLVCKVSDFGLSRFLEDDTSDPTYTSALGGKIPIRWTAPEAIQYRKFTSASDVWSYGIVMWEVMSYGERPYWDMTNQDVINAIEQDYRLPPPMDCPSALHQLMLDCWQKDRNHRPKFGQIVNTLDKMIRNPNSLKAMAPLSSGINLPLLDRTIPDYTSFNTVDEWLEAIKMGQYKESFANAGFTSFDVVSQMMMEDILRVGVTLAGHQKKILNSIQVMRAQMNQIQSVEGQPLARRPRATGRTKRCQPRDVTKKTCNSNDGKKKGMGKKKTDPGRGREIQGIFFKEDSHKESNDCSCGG
Hck, sequence (P08631 whole entry, looked up): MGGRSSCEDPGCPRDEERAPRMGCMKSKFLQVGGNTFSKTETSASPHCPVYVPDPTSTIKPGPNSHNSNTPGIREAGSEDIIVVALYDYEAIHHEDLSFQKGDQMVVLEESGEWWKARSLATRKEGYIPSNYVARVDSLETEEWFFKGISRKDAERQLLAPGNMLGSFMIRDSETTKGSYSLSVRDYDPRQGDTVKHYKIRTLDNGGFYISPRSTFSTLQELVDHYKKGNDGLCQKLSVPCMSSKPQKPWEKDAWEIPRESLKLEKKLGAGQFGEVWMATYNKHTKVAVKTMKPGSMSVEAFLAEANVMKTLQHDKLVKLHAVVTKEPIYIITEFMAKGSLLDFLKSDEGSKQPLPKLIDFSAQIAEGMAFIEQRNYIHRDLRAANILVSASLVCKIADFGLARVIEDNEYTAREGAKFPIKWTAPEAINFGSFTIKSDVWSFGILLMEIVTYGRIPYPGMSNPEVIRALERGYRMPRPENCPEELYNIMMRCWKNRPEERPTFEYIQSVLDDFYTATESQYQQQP

Row | Sequence | SH2 binding enrichment (c-Src SH2) | SH2 binding enrichment (SHP2-C SH2) | SH2 binding enrichment (Grb2 SH2) | phosphorylation enrichment (Hck) | phosphorylation enrichment (EPHB2) | phosphorylation enrichment (Fer (mouse)) | phosphorylation enrichment (Fyn) | phosphorylation enrichment (EPHB1) | phosphorylation enrichment (Fes) | phosphorylation enrichment (AncSZ) | phosphorylation enrichment (FGFR1) | phosphorylation enrichment (c-Abl (mouse)) | phosphorylation enrichment (FGFR3) | phosphorylation enrichment (Jak2) | phosphorylation enrichment (c-Src) | phosphorylation enrichment (MERTK)
1 | CATIHYNYMCN [TP53_Y234_T230A] | 6.91 | 3.31 | 1.23 | 0.487 | 1.99 | 0.573 | 0.464 | 0.591 | 0.896 | 0.78 | 0.6 | 0.511 | 0.563 | 0.717 | 0.389 | 0.435
2 | CDTKLYTSAPN [DNTTIP2_Y427] | 0.387 | 0.607 | 0.808 | 0.776 | 0.791 | 0.694 | 0.606 | 0.626 | 1.11 | 1 | 0.595 | 0.922 | 0.764 | 0.936 | 0.65 | 0.679
3 | CEHRGHLFLAI [TEK_Y897_Y897H_YF] | 0.867 | 1.06 | 1.41 | 0.547 | 0.544 | 0.463 | 0.516 | 0.625 | 1.11 | 1.02 | 0.536 | 0.806 | 0.908 | 0.888 | 0.453 | 0.482
4 | CENCHYPIVPL [LCK_Y25] | 0.841 | 0.58 | 0.943 | 0.463 | 0.485 | 0.588 | 0.463 | 0.63 | 0.749 | 0.698 | 0.542 | 0.567 | 0.58 | 0.643 | 0.454 | 0.479
5 | CHSDDYVHISL [TSC1_Y406] | 0.539 | 0.593 | 0.762 | 0.554 | 0.65 | 0.491 | 0.502 | 0.768 | 1.13 | 1.27 | 1.23 | 0.781 | 1.07 | 0.958 | 0.495 | 0.436
6 | CNLDTYQKRLR [PLA2G2D_Y126_R121C] | 0.629 | 0.78 | 0.974 | 0.475 | 0.582 | 0.395 | 0.463 | 0.463 | 0.624 | 0.65 | 0.532 | 0.592 | 0.462 | 0.563 | 0.473 | 0.434
7 | CQAHGYFCQPI [STK11_Y156_L160P] | 0.907 | 0.812 | 1.15 | 0.357 | 0.436 | 0.362 | 0.329 | 0.35 | 0.678 | 0.867 | 0.646 | 0.783 | 0.538 | 0.615 | 0.404 | 0.407
8 | CSEEMYCLMLQ [RET_Y981_R982C] | 0.722 | 0.949 | 0.943 | 1.31 | 0.794 | 6.9 | 1.08 | 1.02 | 1.3 | 3.36 | 3.5 | 1.25 | 2.76 | 1.22 | 2.26 | 4.4
9 | CSTIHYNFMCN [TP53_Y234_T230S_YF] | 2.44 | 1.91 | 1.4 | 0.375 | 0.54 | 0.423 | 0.476 | 0.369 | 0.693 | 1.2 | 0.458 | 0.461 | 0.418 | 0.573 | 0.468 | 0.385

Continued, in another order:

Row | SH2 binding enrichment (c-Src SH2) | SH2 binding enrichment (SHP2-C SH2) | SH2 binding enrichment (Grb2 SH2) | Sequence | phosphorylation enrichment (Hck) | phosphorylation enrichment (EPHB2) | phosphorylation enrichment (Fer (mouse)) | phosphorylation enrichment (Fyn) | phosphorylation enrichment (EPHB1) | phosphorylation enrichment (Fes) | phosphorylation enrichment (AncSZ) | phosphorylation enrichment (FGFR1) | phosphorylation enrichment (c-Abl (mouse)) | phosphorylation enrichment (FGFR3) | phosphorylation enrichment (Jak2) | phosphorylation enrichment (c-Src) | phosphorylation enrichment (MERTK)
10 | 0.797 | 1.03 | 0.984 | AVISVYDLVVV [PSEN1_Y256_A260V] | 4.14 | 4.03 | 13.3 | 5.2 | 5.61 | 1.46 | 1.54 | 0.726 | 1 | 1.02 | 1.29 | 3.85 | 6.78
11 | 0.688 | 0.55 | 0.835 | AVLALYNSTRD [TGFB1_Y81] | 0.511 | 0.53 | 0.531 | 0.462 | 0.466 | 0.942 | 0.755 | 0.493 | 0.702 | 0.547 | 0.78 | 0.489 | 0.639
12 | 0.385 | 0.554 | 0.687 | AVSEGYKDFRA [CDA_Y79] | 0.452 | 0.456 | 0.341 | 0.441 | 0.386 | 0.689 | 0.602 | 0.519 | 0.602 | 0.542 | 0.553 | 0.338 | 0.449
13 | 0.554 | 0.753 | 0.811 | CEHRGCLYLAI [TEK_Y897_Y897C] | 0.466 | 0.506 | 0.44 | 0.372 | 0.556 | 1.09 | 1.04 | 0.405 | 0.671 | 0.685 | 1.05 | 1.05 | 0.661
14 | 0.564 | 0.592 | 0.845 | CKLVDYDSARH [BIN1_Y150_R145C] | 0.414 | 0.447 | 0.401 | 0.463 | 0.505 | 0.909 | 0.777 | 0.395 | 0.61 | 0.624 | 0.66 | 0.372 | 0.381
15 | 0.391 | 0.523 | 0.731 | CKLYQYYLDHL [ATRX_Y1849] | 0.698 | 1.54 | 0.758 | 0.587 | 2.18 | 1.65 | 1.74 | 1.44 | 1.17 | 1.54 | 1.54 | 2.05 | 2.12
16 | 0.62 | 1.25 | 1.01 | CRAVKYLQMVR [AVPR2_Y117_G122R] | 0.417 | 0.467 | 0.455 | 0.459 | 0.499 | 0.878 | 0.882 | 0.436 | 0.733 | 0.527 | 1.2 | 0.401 | 0.331
